This is an account of results in article doi:10.1101/771139 (bioRxiv, 2020).

This series deals with the molecule itself. The experiment in a line: […].

B1: Bacillus subtilis SepF (natural protein)
chain: MSMKNKLKNFFSMEDEEYEYEYIETERESHEEHEQKEKPAYNGNKPAGKQNVVSLQSVQKSSKVVLSEPRVYAEAQEIADHLKNRRAVVVNLQRIQHDQAKRIVDFLSGTVYAIGGDIQRIGSDIFLCTPDNVDVSGTISELISEDEHQRW
For the protein B1, the binding result is recorded as “binds”.
